# Measurements as given in publication PMC9482650, “Quantitative fragmentomics allow affinity mapping of interactomes” (Nature Communications, 2022).
# T1: TJP3_2, O95049
# T1 sequence (O95049 190-282, limits assumed, looked up): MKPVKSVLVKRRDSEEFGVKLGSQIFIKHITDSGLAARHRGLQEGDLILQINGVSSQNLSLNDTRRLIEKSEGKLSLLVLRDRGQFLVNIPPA
# T2: LNX2_1, Q8N448
# T2 sequence (Q8N448 228-328, limits assumed, looked up): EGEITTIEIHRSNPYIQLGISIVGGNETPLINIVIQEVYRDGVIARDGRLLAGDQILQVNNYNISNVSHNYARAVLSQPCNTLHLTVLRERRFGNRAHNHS
# T3: SYNPO2L, Q9H987
# T3 sequence (Q9H987 1-98, limits assumed, looked up): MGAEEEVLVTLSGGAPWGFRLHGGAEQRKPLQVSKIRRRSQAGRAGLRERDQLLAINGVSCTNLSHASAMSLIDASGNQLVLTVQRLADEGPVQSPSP
# T4: PDZD2_3, O15018
# T4 sequence (O15018 581-682, limits assumed, looked up): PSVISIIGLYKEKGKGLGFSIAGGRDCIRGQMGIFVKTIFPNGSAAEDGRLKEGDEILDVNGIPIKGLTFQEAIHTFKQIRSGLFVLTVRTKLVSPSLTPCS
# T5: PTPN13_5, Q12923
# T5 sequence (Q12923 1877-1975, limits assumed, looked up): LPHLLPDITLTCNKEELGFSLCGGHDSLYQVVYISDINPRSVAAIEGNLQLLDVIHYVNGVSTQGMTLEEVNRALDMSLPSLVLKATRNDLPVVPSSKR
# T6: MAGI2_1, Q86UL8
# T6 sequence (Q86UL8 12-111, limits assumed, looked up): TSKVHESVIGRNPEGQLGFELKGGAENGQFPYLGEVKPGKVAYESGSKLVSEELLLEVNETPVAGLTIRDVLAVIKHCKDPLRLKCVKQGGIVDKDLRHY
# T7: PDZD11, Q5EBL8
# T7 sequence (Q5EBL8 42-139, limits assumed, looked up): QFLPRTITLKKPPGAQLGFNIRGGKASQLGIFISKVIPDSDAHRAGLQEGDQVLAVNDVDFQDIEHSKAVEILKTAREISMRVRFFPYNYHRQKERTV
# T8: SHANK3, Q9BYB0
# T8 sequence (Q9BYB0 641-750, limits assumed, looked up): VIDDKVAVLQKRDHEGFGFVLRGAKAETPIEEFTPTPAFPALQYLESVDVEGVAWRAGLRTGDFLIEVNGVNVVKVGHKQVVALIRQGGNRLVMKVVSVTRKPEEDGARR
# T9: TJP3_1, O95049
# T9 sequence (O95049 6-103, limits assumed, looked up): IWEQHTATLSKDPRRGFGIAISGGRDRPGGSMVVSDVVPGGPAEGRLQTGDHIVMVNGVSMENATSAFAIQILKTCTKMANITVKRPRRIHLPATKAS
# T10: SIPA1L2, Q9P2F8
# T10 sequence (Q9P2F8 945-1036, limits assumed, looked up): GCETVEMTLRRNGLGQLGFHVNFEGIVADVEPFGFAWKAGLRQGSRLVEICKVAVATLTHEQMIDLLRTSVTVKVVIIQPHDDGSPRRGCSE
# T11: INTU, Q9ULD6
# T11 sequence (Q9ULD6 180-273, limits assumed, looked up): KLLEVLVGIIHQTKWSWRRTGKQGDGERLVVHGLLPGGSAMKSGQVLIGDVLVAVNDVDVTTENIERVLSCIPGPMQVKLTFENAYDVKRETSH
# T12: SIPA1L3, O60292
# T12 sequence (O60292 961-1052, limits assumed, looked up): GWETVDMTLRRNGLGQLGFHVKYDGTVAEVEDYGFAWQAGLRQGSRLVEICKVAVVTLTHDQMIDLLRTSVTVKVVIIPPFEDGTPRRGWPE
# T13: MPDZ_2, O75970
# T13 sequence (O75970 252-347, limits assumed, looked up): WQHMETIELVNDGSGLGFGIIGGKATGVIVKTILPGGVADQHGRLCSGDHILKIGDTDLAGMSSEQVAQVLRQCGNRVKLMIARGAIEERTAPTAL
# T14: PARD6B, Q9BYG5
# T14 sequence (Q9BYG5 152-260, limits assumed, looked up): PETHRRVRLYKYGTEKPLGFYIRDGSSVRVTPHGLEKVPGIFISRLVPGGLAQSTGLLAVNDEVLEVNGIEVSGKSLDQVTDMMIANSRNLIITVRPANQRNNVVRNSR
# Tests used:
# Experiment in all cases: holdup assay
# Conditions in all cases: plain residues with an end cap or a label only (N-terminal biotin on a linker: (peg)3)
# TJP3_2, O95049 = molecular target: T1, TJP3_2, O95049
# LNX2_1, Q8N448 = molecular target: T2, LNX2_1, Q8N448
# PTPN13_2, Q12923 = molecular target: PTPN13_2, Q12923
# PTPN13_2, Q12923, sequence (Q12923 1363-1462): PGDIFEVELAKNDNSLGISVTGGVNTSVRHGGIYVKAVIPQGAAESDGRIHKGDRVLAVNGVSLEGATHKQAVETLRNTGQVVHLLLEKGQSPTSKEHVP
# SYNPO2L, Q9H987 = molecular target: T3, SYNPO2L, Q9H987
# PDZD2_3, O15018 = molecular target: T4, PDZD2_3, O15018
# IL16_2, Q14005 = molecular target: IL16_2, Q14005
# IL16_2, Q14005, sequence (Q14005 350-450): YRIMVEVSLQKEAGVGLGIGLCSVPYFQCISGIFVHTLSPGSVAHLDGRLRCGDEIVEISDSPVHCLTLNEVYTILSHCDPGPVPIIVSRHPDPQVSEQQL
# MAGIX, Q9H6Y5 = molecular target: MAGIX, Q9H6Y5
# MAGIX, Q9H6Y5, sequence (Q9H6Y5 118-211): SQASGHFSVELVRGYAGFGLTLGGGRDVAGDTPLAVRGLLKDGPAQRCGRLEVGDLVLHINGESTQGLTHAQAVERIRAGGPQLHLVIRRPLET
# PTPN13_5, Q12923 = molecular target: T5, PTPN13_5, Q12923
# RIMS1, Q86UR5 = molecular target: RIMS1, Q86UR5
# RIMS1, Q86UR5, sequence (Q86UR5 584-692): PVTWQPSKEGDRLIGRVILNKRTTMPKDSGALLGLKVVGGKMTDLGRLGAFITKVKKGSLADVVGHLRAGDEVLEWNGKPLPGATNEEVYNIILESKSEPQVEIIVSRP
# MAGI3_6, Q5TCQ9 = molecular target: MAGI3_6, Q5TCQ9
# MAGI3_6, Q5TCQ9, sequence (Q5TCQ9 1014-1103): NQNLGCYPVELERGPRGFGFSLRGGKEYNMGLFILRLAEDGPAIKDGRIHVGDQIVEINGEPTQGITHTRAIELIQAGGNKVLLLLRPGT
# MAGI2_1, Q86UL8 = molecular target: T6, MAGI2_1, Q86UL8
# PDZD11, Q5EBL8 = molecular target: T7, PDZD11, Q5EBL8
# MAGI1_3, Q96QZ7 = molecular target: MAGI1_3, Q96QZ7
# MAGI1_3, Q96QZ7, sequence (Q96QZ7 638-725): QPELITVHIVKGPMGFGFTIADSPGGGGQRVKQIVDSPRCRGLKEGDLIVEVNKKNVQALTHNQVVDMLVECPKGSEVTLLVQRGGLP
# SHANK3, Q9BYB0 = molecular target: T8, SHANK3, Q9BYB0
# TJP3_1, O95049 = molecular target: T9, TJP3_1, O95049
# PDZRN4_2, Q6ZMN7 = molecular target: PDZRN4_2, Q6ZMN7
# PDZRN4_2, Q6ZMN7, sequence (Q6ZMN7 389-498): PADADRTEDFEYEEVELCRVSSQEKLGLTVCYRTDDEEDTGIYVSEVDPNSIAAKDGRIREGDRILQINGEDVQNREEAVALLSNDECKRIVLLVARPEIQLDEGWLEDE
# MAGI3_4, Q5TCQ9 = molecular target: MAGI3_4, Q5TCQ9
# MAGI3_4, Q5TCQ9, sequence (Q5TCQ9 716-815): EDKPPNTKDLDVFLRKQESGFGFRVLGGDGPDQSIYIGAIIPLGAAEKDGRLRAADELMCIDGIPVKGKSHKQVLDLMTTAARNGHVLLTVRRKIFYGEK
# PDLIM4, P50479 = molecular target: PDLIM4, P50479
# PDLIM4, P50479, sequence (P50479 1-83): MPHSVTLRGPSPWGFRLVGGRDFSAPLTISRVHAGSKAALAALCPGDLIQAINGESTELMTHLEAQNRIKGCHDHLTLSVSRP
# SIPA1L2, Q9P2F8 = molecular target: T10, SIPA1L2, Q9P2F8
# INTU, Q9ULD6 = molecular target: T11, INTU, Q9ULD6
# SIPA1L3, O60292 = molecular target: T12, SIPA1L3, O60292
# MPDZ_2, O75970 = molecular target: T13, MPDZ_2, O75970
# PARD6B, Q9BYG5 = molecular target: T14, PARD6B, Q9BYG5
binder,measurement,setting,value
"YDEPTTTTSVPL [SARS-Cov2-3a, P0DTC3]",pKd,"TJP3_2, O95049",below the threshold
same,pKd,"LNX2_1, Q8N448",below the threshold
same,pKd,"PTPN13_2, Q12923",below the threshold
same,pKd,"SYNPO2L, Q9H987",below the threshold
same,pKd,"PDZD2_3, O15018",below the threshold
same,pKd,"IL16_2, Q14005",below the threshold
same,pKd,"MAGIX, Q9H6Y5",below the threshold
same,pKd,"PTPN13_5, Q12923",below the threshold
same,pKd,"RIMS1, Q86UR5",below the threshold
same,pKd,"MAGI3_6, Q5TCQ9",below the threshold
same,pKd,"MAGI2_1, Q86UL8",below the threshold
same,pKd,"PDZD11, Q5EBL8",below the threshold
same,pKd,"MAGI1_3, Q96QZ7",below the threshold
same,pKd,"SHANK3, Q9BYB0",below the threshold
same,pKd,"TJP3_1, O95049",below the threshold
same,pKd,"PDZRN4_2, Q6ZMN7",below the threshold
same,pKd,"MAGI3_4, Q5TCQ9",below the threshold
same,pKd,"PDLIM4, P50479",below the threshold
same,pKd,"SIPA1L2, Q9P2F8",below the threshold
same,pKd,"INTU, Q9ULD6",3.86
same,pKd,"SIPA1L3, O60292",below the threshold
same,pKd,"MPDZ_2, O75970",below the threshold
same,pKd,"PARD6B, Q9BYG5",below the threshold
